Assay results from PMC9012472 (Science Advances, 2022).

Molecular target: T1, human Inturned (human, UniProt Q9ULD6 1-942)
T1 sequence (looked up): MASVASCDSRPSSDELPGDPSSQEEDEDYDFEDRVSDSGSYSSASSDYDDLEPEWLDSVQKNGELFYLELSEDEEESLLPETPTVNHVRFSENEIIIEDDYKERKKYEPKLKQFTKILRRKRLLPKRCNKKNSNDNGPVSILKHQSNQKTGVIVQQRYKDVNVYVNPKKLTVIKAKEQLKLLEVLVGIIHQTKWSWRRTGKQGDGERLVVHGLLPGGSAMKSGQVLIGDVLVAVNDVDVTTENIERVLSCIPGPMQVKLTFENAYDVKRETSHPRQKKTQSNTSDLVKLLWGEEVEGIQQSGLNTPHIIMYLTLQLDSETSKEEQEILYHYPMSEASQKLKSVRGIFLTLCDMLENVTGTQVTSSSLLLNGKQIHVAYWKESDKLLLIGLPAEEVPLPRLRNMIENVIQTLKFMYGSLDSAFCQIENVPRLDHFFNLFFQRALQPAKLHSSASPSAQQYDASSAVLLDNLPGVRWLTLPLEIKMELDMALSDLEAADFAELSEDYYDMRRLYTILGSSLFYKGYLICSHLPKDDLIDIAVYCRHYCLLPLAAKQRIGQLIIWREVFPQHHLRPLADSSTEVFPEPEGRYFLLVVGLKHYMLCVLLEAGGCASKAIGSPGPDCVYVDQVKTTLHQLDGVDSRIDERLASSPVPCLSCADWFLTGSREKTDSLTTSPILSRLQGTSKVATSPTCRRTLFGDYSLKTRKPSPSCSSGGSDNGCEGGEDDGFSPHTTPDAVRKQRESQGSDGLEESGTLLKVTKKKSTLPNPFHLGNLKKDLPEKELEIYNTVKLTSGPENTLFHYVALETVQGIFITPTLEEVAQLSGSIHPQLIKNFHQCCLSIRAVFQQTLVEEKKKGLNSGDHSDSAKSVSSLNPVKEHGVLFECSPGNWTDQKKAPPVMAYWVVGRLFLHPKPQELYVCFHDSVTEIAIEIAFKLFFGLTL
Assay: cryo-EM structure

B1: human Wdpcp (natural protein, UniProt O95876 1-746, looked up)
chain: MRREFCWDAYSKAAGSRASSPLPRQDRDSFCHQMSFCLTELHLWSLKNTLHIADRDIGIYQYYDKKDPPATEHGNLEKKQKLAESRDYPWTLKNRRPEKLRDSLKELEELMQNSRCVLSKWKNKYVCQLLFGSGVLVSLSLSGPQLEKVVIDRSLVGKLISDTISDALLTDSFIILSFLAQNKLCFIQFTKKMESSDVNKRLEKLSALDYKIFYYEIPGPINKTTERHLAINCVHDRVVCWWPLVNDDAWPWAPISSEKDRANLLLLGYAQGRLEVLSSVRTEWDPLDVRFGTKQPYQVFTVEHSVSVDKEPMADSCIYECIRNKIQCVSVTRIPLKSKAISCCRNVTEDKLILGCEDSSLILYETHRRVTLLAQTELLPSLISCHPSGAILLVGSNQGELQIFDMALSPINIQLLAEDRLPRETLQFSKLFDASSSLVQMQWIAPQVVSQKGEGSDIYDLLFLRFERGPLGVLLFKLGVFTRGQLGLIDIIFQYIHCDEIYEAINILSSMNWDTLGHQCFISMSAIVNHLLRQKLTPEREAQLETSLGTFYAPTRPLLDSTILEYRDQISKYARRFFHHLLRYQRFEKAFLLAVDVGARDLFMDIHYLALDKGELALAEVARKRASDIDAESITSGVELLGPLDRGDMLNEAFIGLSLAPQGEDSFPDNLPPSCPTHRHILQQRILNGSSNRQIIDRRNELEKDICSGFLMTNTCNAEDGELREDGREQEIRDGGSLKMIHFGLV
Does B1 bind?
Result: binds

B2: human Fuzzy (natural protein, UniProt Q9BT04 1-418, looked up)
chain: MGEEGTGGTVHLLCLAASSGVPLFCRSSRGGAPARQQLPFSVIGSLNGVHMFGQNLEVQLSSARTENTTVVWKSFHDSITLIVLSSEVGISELRLERLLQMVFGAMVLLVGLEELTNIRNVERLKKDLRASYCLIDSFLGDSELIGDLTQCVDCVIPPEGSLLQEALSGFAEAAGTTFVSLVVSGRVVAATEGWWRLGTPEAVLLPWLVGSLPPQTARDYPVYLPHGSPTVPHRLLTLTLLPSLELCLLCGPSPPLSQLYPQLLERWWQPLLDPLRACLPLGPRALPSGFPLHTDILGLLLLHLELKRCLFTVEPLGDKEPSPEQRRRLLRNFYTLVTSTHFPPEPGPPEKTEDEVYQAQLPRACYLVLGTEEPGTGVRLVALQLGLRRLLLLLSPQSPTHGLRSLATHTLHALTPLL
Does B2 bind?
Result: binds
